{"source": "paper PMC10686051", "about": "(Nature structural & molecular biology, 2023)", "proteins": {"B1": {"name": "MRE11 structured-domain (1–411 aa) (domain or fragment, UniProt P49959 1-411, looked up)", "chain": "MSTADALDDENTFKILVATDIHLGFMEKDAVRGNDTFVTLDEILRLAQENEVDFILLGGDLFHENKPSRKTLHTCLELLRKYCMGDRPVQFEILSDQSVNFGFSKFPWVNYQDGNLNISIPVFSIHGNHDDPTGADALCALDILSCAGFVNHFGRSMSVEKIDISPVLLQKGSTKIALYGLGSIPDERLYRMFVNKKVTMLRPKEDENSWFNLFVIHQNRSKHGSTNFIPEQFLDDFIDLVIWGHEHECKIAPTKNEQQLFYISQPGSSVVTSLSPGEAVKKHVGLLRIKGRKMNMHKIPLHTVRQFFMEDIVLANHPDIFNPDNPKVTQAIQSFCLEKIEEMLENAERERLGNSHQPEKPLVRLRVDYSGGFEPFSVLRFSQKFVDRVANPKDIIHFFRHREQKEKTGEE", "modifications": "amine-reactive AlexaFluor-647 dye on the labeled copy; the titrated copy is unlabeled"}}, "target": "the molecule itself", "assay": "MST", "data": [{"protein": "B1", "values": [{"measurement": "Kd", "value": "370 ± 80", "unit": "nM"}]}]}
